# Measurements reported in patent US7026443.
# Biological target: HLA-A*0201 (human)
# Assay: not given
# Conditions: not given
Binder,relative binding ratio (IC50 of standard peptide / IC50 of test peptide) (ratio to standard peptide),relative binding ratio (IC50 of standard peptide / IC50 of test peptide),binding affinity ratio (IC50 of the standard peptide / IC50 of the test peptide)
"KLRSTAAAL (modifications not checked) [HPV31 E1 peptide … (position 291, 9 amino acids)]",0.0003,–,–
DLLCHEQL (modifications not checked) [HPV18 E7 peptide DLLCHEQL (position 24)],–,0.0001,–
"FLKSNSQAKI (modifications not checked) [HPV33 E1 peptide … (position 385, 10 amino acids)]",0.0011,–,–
GLYNLLIRCL (modifications not checked) [HPV18 E6 peptide … (position 97)],–,0.0036,–
FLKSNSQAKI (modifications not checked) [HPV16 E1 392 peptide …],–,0.0011,–
LMKFLQGSVI (modifications not checked) [HPV16 E1 490 …],–,0.0003,–
CLYLHIQSL (modifications not checked),–,0.076,–
KLRSTAAAL (modifications not checked) [HPV16 E1 311 …],–,0.0003,–
CLYLHIQSLA (modifications not checked),–,0.0032,–
TLLQQYCLYL (modifications not checked) [HPV16 E1 253 …],0.65,–,–
"QLFLNTLSFV (modifications not checked) [HPV18 E7 peptide … (position 88, 10 amino acids as printed)]",0.11,–,–
FAFKDLFVV (modifications not checked) [HPV18 E6 peptide … (position 47)],–,0.085,–
ALKRFLQGI (modifications not checked) [HPV16 E1 … (position 459)],–,0.0062,–
"TLSFVCPWCA (modifications not checked) [HPV45 E7 peptide … (position 94, 10 amino acids)]",0.0027,–,–
SLMKFLQGSV (modifications not checked) [HPV16 E1 489 …],0.025,–,–
FVNSKSHFWL (modifications not checked) [HPV16 E1 501 peptide …],–,0.0015,–
ALDGNLVSM (modifications not checked) [HPV16 E1 … (position 539)],–,0.027,–
EVFEFAFKDL (modifications not checked) [HPV18 E6 peptide … (position 43)],–,0.0009,–
QLKCPPLLI (modifications not checked) [HPV16 E1 556 …],0.0049,–,–
LLQQYCLYL (modifications not checked) [HPV16 E1 254 …],–,0.1,–
SLACSWGMV (modifications not checked),0.082,–,–
EITCVYCKTV (modifications not checked) [HPV18 E6 29 …],–,–,0.0002
"PVDLLCHEQL (modifications not checked) [HPV18 E7 peptide … (position 22, 10 amino acids)]",0.0001,–,–
ALYWYKTGI (modifications not checked) [HPV16 E1 … (position 318)],–,0.0019,–
SLACSWGMVV (modifications not checked),0.13,–,–
FLKSNSQAKI (modifications not checked) [HPV31 E1 372 peptide … (SEQ ID NO: 4704)],0.0011,–,–
VVYRDSIPHA (modifications not checked) [HPV18 E6 peptide … (position 54)],–,0.0003,–
PLNPAEKLRHL (modifications not checked) [HPV18 E6 peptide … (position 111)],–,0.0001,–
"TLSFVCPWCA (modifications not checked) [HPV18 E7 peptide … (position 93, 10 amino acids)]",0.0027,–,–
ELSQMVQWA (modifications not checked) [HPV16 E1 356 peptide …],–,0.0003,–

# Same assay, conditions: remark: other sources report otherwise
row,Binder,relative binding ratio (IC50 of standard peptide / IC50 of test peptide)
1,KLPDLCTEL (modifications not checked) [HPV18 E6 peptide … (position 13)],0.0035
2,"KLPDLCTEL (modifications not checked) [HPV45 E6 peptide … (position 13, 9 amino acids)]",0.0035
3,ELTEVFEFA (modifications not checked) [HPV18 E6 peptide … (position 40)],0.0012

# Biological target: HLA-A*0301 (human)
# Assay: competition with 125I-labelled standard peptide for purified HLA-A*0301, gel filtration
# Conditions: not given
Binder,relative binding ratio (IC50 of standard peptide / IC50 of test peptide) (ratio to standard peptide),binding affinity ratio (IC50 of standard peptide / IC50 of test peptide),binding affinity ratio (IC50 of the standard peptide / IC50 of the test peptide)
"SCCRSSRTR (modifications not checked) [… (HPV16 E6, position 145)]",0.0003,–,–
ISLNSGQKK (modifications not checked) [HPV18 E1 116 …],–,0.0003,–
SVICFVNSK (modifications not checked) [HPV16 E1 497 …],–,0.0005,–
AFRDLCIVY (modifications not checked) [HPV16 E6 position 53 peptide …],–,–,0.0052
CMSCCRSSR (modifications not checked) [HPV16 E6 position 143 peptide …],–,–,0.0033
SLFGMSLMK (modifications not checked) [HPV16 E1 484 …],–,0.72,–
"LTTNIHPAK (modifications not checked) [… (HPV18 E1, position 571, 9 amino acids)]",–,0.091,–
"AGHYRGQCH (modifications not checked) [HPV18 E6 peptide … (position 131, 9 amino acids)]",0.0005,–,–
AVCDKCLK (modifications not checked) [HPV16 E6 position 68 peptide AVCDKCLK],–,–,0.0053
"TGRCMSCCR (modifications not checked) [… (HPV16 E6, position 140)]",0.0003,–,–
"WTGRCMSCCR (modifications not checked) [… (HPV16 E6, position 139)]",0.0003,–,–
"NIHPAKDNR (modifications not checked) [… (HPV18 E1, position 574, 9 amino acids)]",–,0.0005,–
GVLILALLR (modifications not checked) [HPV18 E1 279 …],–,0.0058,–
"VCDKCLKFY (modifications not checked) [… (HPV16 E6, position 69)]",0.0002,–,–
"LCPEEKQRH (modifications not checked) [… (HPV16 E6, position 117)]",0.0003,–,–
"NSGQKKAKR (modifications not checked) [… (HPV18 E1, position 119, 9 amino acids)]",–,0.0005,–
"PLCPEEKQR (modifications not checked) [… (HPV16 E6, position 116)]",0.0002,–,–
CCRSSRTRR (modifications not checked) [HPV16 E6 position 146 peptide …],–,–,0.0003
TAQEAKQHR (modifications not checked) [HPV16 E1 72 …],–,0.0005,–
AVCDKCLKFY (modifications not checked),–,–,0.0052
"NIRGRWTGR (modifications not checked) [… (HPV16 E6, position 134)]",0.0014,–,–
RLKAICIEK (modifications not checked) [HPV16 E1 109 …],–,0.084,–
GDTPEWIQR (modifications not checked) [HPV18 E1 341 …],–,0.0008,–
AVCDKCLKF (modifications not checked),–,–,0.0002

# Same assay, conditions: remark: other sources report otherwise
Binder,relative binding ratio (IC50 of standard peptide / IC50 of test peptide) (ratio to standard peptide),binding affinity ratio (IC50 of the standard peptide / IC50 of the test peptide)
"IVYRDGNPY (modifications not checked) [… (HPV16 E6, position 59)]",0.15,–
AMFQDPQER (modifications not checked) [HPV16 E6 position 7 peptide …],–,0.017
"HLDKKQRFH (modifications not checked) [… (HPV16 E6, position 125)]",0.0009,–

# Same assay, conditions: scale: ratio
row,Binder,relative binding ratio (A*0301)
1,"KSFLKGTPK (modifications not checked) [HPV18 E1 peptide … (position 468, 9 amino acids)]",0.0003
2,"LILALLRYK (modifications not checked) [HPV18 E1 peptide … (position 281, 9 amino acids)]",0.27
3,"KLRAGQNHR (modifications not checked) [HPV18 E1 peptide … (position 647, 9 amino acids)]",0.3
